Results taken from article doi:10.1101/2025.07.17.665365, “A protein-dependent riboswitch activates ribosomal frameshifting in cardioviruses”.

Tests used:
[1] = molecular target: T1, TMEV 2A (Theiler's murine encephalitis virus …, UniProt P08545 923-1055); experiment: EMSA; EMSA: 10 mM Tris-HCl pH 7.4, ~140 mM NaCl, 2 mM Mg acetate, 1 mM DTT, 5% glycerol, 50 nM RNA, 37 C; MST: 20 mM Tris-HCl pH 7.4, 400 mM NaCl, 1 mM MgCl2, 1 mM DTT, 0.05% Tween-20, 0.1 mg/ml tRNA, 22 C; smFRET: 10 mM Tris-HCl pH 7.4, 150 mM NaCl, 1 mM MgCl2, 1 mM DTT, 0.1 mg/ml BSA, ambient; conditions: protein: recombinant, tags: His6-MBP, TEV-cleaved/removed, label: 5' Cy5 or AzDye647
T1 sequence: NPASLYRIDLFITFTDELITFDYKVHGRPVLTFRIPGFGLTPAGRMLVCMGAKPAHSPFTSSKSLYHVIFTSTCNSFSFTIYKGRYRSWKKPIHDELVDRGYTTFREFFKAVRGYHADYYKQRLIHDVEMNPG

[2] = molecular target: T1, TMEV 2A; experiment: EMSA; range given jointly for +1 and -1 bp; EMSA: 10 mM Tris-HCl pH 7.4, ~140 mM NaCl, 2 mM Mg acetate, 1 mM DTT, 5% glycerol, 50 nM RNA, 37 C; MST: 20 mM Tris-HCl pH 7.4, 400 mM NaCl, 1 mM MgCl2, 1 mM DTT, 0.05% Tween-20, 0.1 mg/ml tRNA, 22 C; smFRET: 10 mM Tris-HCl pH 7.4, 150 mM NaCl, 1 mM MgCl2, 1 mM DTT, 0.1 mg/ml BSA, ambient; conditions: protein: recombinant, tags: His6-MBP, TEV-cleaved/removed, label: 5' Cy5 or AzDye647
[3] = molecular target: T1, TMEV 2A; experiment: X-ray crystallography; 1.9 A; pseudoknot; EMSA: 10 mM Tris-HCl pH 7.4, ~140 mM NaCl, 2 mM Mg acetate, 1 mM DTT, 5% glycerol, 50 nM RNA, 37 C; MST: 20 mM Tris-HCl pH 7.4, 400 mM NaCl, 1 mM MgCl2, 1 mM DTT, 0.05% Tween-20, 0.1 mg/ml tRNA, 22 C; smFRET: 10 mM Tris-HCl pH 7.4, 150 mM NaCl, 1 mM MgCl2, 1 mM DTT, 0.1 mg/ml BSA, ambient; conditions: protein: recombinant; tags: His6-MBP, TEV-cleaved/removed; stem-loop alone
[4] = molecular target: T1, TMEV 2A; experiment: smFRET; 0.5 uM 2A; E 0.58 to 0.83; EMSA: 10 mM Tris-HCl pH 7.4, ~140 mM NaCl, 2 mM Mg acetate, 1 mM DTT, 5% glycerol, 50 nM RNA, 37 C; MST: 20 mM Tris-HCl pH 7.4, 400 mM NaCl, 1 mM MgCl2, 1 mM DTT, 0.05% Tween-20, 0.1 mg/ml tRNA, 22 C; smFRET: 10 mM Tris-HCl pH 7.4, 150 mM NaCl, 1 mM MgCl2, 1 mM DTT, 0.1 mg/ml BSA, ambient; conditions: protein: recombinant; tags: His6-MBP, TEV-cleaved/removed; label: 5' Cy5; U31 Cy3; stem-loop / pseudoknot
[5] = molecular target: T1, TMEV 2A; experiment: smFRET; 0.5 uM 2A; E 0.85 to 0.63; EMSA: 10 mM Tris-HCl pH 7.4, ~140 mM NaCl, 2 mM Mg acetate, 1 mM DTT, 5% glycerol, 50 nM RNA, 37 C; MST: 20 mM Tris-HCl pH 7.4, 400 mM NaCl, 1 mM MgCl2, 1 mM DTT, 0.05% Tween-20, 0.1 mg/ml tRNA, 22 C; smFRET: 10 mM Tris-HCl pH 7.4, 150 mM NaCl, 1 mM MgCl2, 1 mM DTT, 0.1 mg/ml BSA, ambient; conditions: protein: recombinant; tags: His6-MBP, TEV-cleaved/removed; label: 5' Cy5; 3' Cy3; stem-loop / pseudoknot
[6] = molecular target: T1, TMEV 2A; experiment: SEC-SAXS; SASDWS5; EMSA: 10 mM Tris-HCl pH 7.4, ~140 mM NaCl, 2 mM Mg acetate, 1 mM DTT, 5% glycerol, 50 nM RNA, 37 C; MST: 20 mM Tris-HCl pH 7.4, 400 mM NaCl, 1 mM MgCl2, 1 mM DTT, 0.05% Tween-20, 0.1 mg/ml tRNA, 22 C; smFRET: 10 mM Tris-HCl pH 7.4, 150 mM NaCl, 1 mM MgCl2, 1 mM DTT, 0.1 mg/ml BSA, ambient; conditions: protein: recombinant; tags: His6-MBP, TEV-cleaved/removed; 7 bp stem-loop with unpaired 5' tail alone; pseudoknot in complex

CAAAAUACGGUGCUAACUAAAUUUUUAGCACCCC (structured_RNA) [AU stem 1]: no binding ([1]; stem-loop / pseudoknot).

CAAGGUGCGGUGCACUAAAUCCCGCACCCC (structured_RNA) [-2 bp stem 2]: no binding ([1]; 5 bp S2).

CAAGGUGCCCACGAUACUAAAUCCCAUCGUGGCC (structured_RNA) [Stem 2 swap] gave a Kd ([1]; stem-loop / pseudoknot) of ~313 nM.

In the case of CAAGGUGGGGUGCUUACUAAAUCCCAAGCACCCC (structured_RNA) [+1 bp stem 2], the Kd ([2]; 8 bp S2) is reported as ~442 nM.

CAAGGUGCGGUGCUAACUAAAUCCCUAGCACCCC (structured_RNA) [TMEV minimal stimulatory element (oligo 1)]: binds [3].

CAAGGUGCGGUGCUAACUAAAUCCCUAGCACCCC (structured_RNA, U31 Cy3 (internal)) [TMEV internal reporter RNA]: binds [4].

CAAGGUGCGGUGCUAACUAAAUCCCUAGCACCCC (structured_RNA) [TMEV end reporter RNA]: binds [5].

CAAGGUGCGGUGCUAACUAAAUGCCUAGCACCCC (structured_RNA) [C36G]: no binding ([1]; stem-loop).

CAAGGUGCGGUGCUAACUAAAUCGCUAGCACCCC (structured_RNA) [C37G]: no binding ([1]; stem-loop).

CAAGGUGCGGUGCUACUAAAUCCCAGCACCCC (structured_RNA) [-1 bp stem 2] showed a Kd ([2]; 6 bp S2) of ~442 nM.

CCACAAGGUGCGGUGCUAACUAAAUCCCUAGCACCCC (structured_RNA) [TMEV stimulatory element, SAXS RNA]: binds [6].

CAAGGGCGGUGCUAACUAAAUCCCUAGCACCCC (structured_RNA) [dU19 stem 1]: no binding ([1]; stem-loop / pseudoknot).

CAACCUCCGGUGCUAACUAAAUGGGUAGCACCCC (structured_RNA) [Stem 1 swap]: no binding ([1]; stem-loop / pseudoknot).

CAAUUUUCGGUGCUAACUAAAUAAAUAGCACCCC (structured_RNA) [UA stem 1]: no binding ([1]; stem-loop / pseudoknot).
